Measured values reported in patent US20230210962A1, “CONDITIONING REGIMEN FOR TRANSPLANT” (Hansa Biopharma AB, priority 2020, published 2023).

What was measured:
[1] = biological target: Rabbit anti-thymocyte globulin (rATG) (rabbit); assay: cell-based or functional assay; conditions: scale: of 11 subjects with intact rATG remaining
[2] = test system: anti-MHC-I H-2K^b mAb (mouse IgG2b) mediated killing of donor BMC; assay: In vivo EndoS mediated monoclonal DSA inhibition assay (NOD recipients); parameters: species or system NOD mice
Description: (§1) FIG. 1. EndoS inhibits monoclonal DSA mediated killing of donor bone marrow cells. Naive NOD (panel A-B) or B6.H-2^g7 (panel C-D) were given 30 µg EndoS and/or anti-H-2K^b mAb (10 µg or 100 µg) intravenously four hours prior to the infusion of a mixture of CFSE labeled NOD/CTV labeled B6 bone marrow cells (BMC; panel A-B) or CFSE labeled B6.H-2^g7/CTV labeled NOD.H-2^b BMC (panel C-D). Shown are experiment protocols for NOD (panel A) and B6.H-2^g7 (panel C). Shown are the ratios of dye labeled B6 to NOD cells (panel B) or NOD.H-2^b to B6.H-2^g7 cells (panel D) in the blood (left panels) collected one to three hours after bone marrow transplant (BMT), in host spleens (middle panels) and bone marrow (BM, right panels) collected at four hours after BMT. Mean±SEM are shown. Data were pooled from five (panel B) and four (panel D) independent experiments. Mann-Whitney U test (middle and right panels) was used for the comparisons shown; *p<0.05 and **p<0.01.
NOD or B6.H-2^g7 mice were i.v. injected with vehicle, anti-MHC-I H-2K^b (10 µg) alone, or a mixture of EndoS (30 µg) and anti-MHC-I H-2K^b (10 µg or 100 µg) as a pretreatment. EndoS and anti-H-2K^b were mixed right before injection. Four hours after this pretreatment, five million cells of a 1:1 mixture of carboxyfluorescein succinimidyl ester (CFSE) labeled NOD and cell trace violet dye (CTV) labeled B6 bone marrow cells (BMC) were i.v. injected into the pre-treated NOD mice. Similarly, a 1:1 mixture of CFSE labeled B6.H-2^g7 and CTV labeled NOD.H-2^b BMC were injected into pre-treated B6.H-2^g7 mice. Blood was collected at 1, 2, and 3 hours post cell administration and analyzed by flow cytometry. Splenocytes and BMC from one hind limb were collected from each mouse and analyzed at four hours post BMC injection.
To evaluate the effect of EndoS on inhibiting the antibody-mediated killing of donor BMC, DSA passive transfer experiments were performed. Of all DSA, anti-donor MHC or HLA antibodies are of most importance in the clinic. Therefore, naïve NOD mice were injected with mouse IgG2b antibodies targeting MHC-I K^b expressing cells, treated with EndoS or left untreated, and thereafter subjected to bone marrow transfer from B6 mice.

[3] = test system: anti-MHC-I H-2K^b mAb (mouse IgG2b) mediated killing of donor BMC; assay: In vivo EndoS mediated monoclonal DSA inhibition assay (complement sufficient B6.H-2^g7 recipients); parameters: species or system B6.H-2^g7 mice; conditions: compared to NOD hosts
Description: as §1
NOD or B6.H-2^g7 mice were i.v. injected with vehicle, anti-MHC-I H-2K^b (10 µg) alone, or a mixture of EndoS (30 µg) and anti-MHC-I H-2K^b (10 µg or 100 µg) as a pretreatment. […] Blood was collected at 1, 2, and 3 hours post cell administration and analyzed by flow cytometry. Splenocytes and BMC from one hind limb were collected from each mouse and analyzed at four hours post BMC injection. […]

[4] = test system: B6.CD45.2 donor bone marrow cells; assay: Short-term survival of donor BMC in sensitized recipients; type: in vivo, NOD mice; conditions: T cell-depleted NOD, enzyme 4 h prior to BMT, four hours post-BMT
Text: FIG. 2. EndoS-imlifidase reduces DSA-mediated killing of donor BMC in sensitized recipients. (A-C) Naive NOD mice were immunized with FVB splenocytes four weeks prior to the administration of EndoS-imlifidase. Sera were harvested prior to immunization, prior to and four hours after enzyme treatment. Representative histograms on the left are for DSA-IgG Fc (panel A), DSA-IgG1 Fc (panel B), DSA-IgG3 Fc (panel C) and DSA-IgG3 heavy chain (panel D) with sera at a 1:25 dilution. Mean fluorescence intensity (MFI) of DSA in the titrated sera is shown on the right. Mean±SEM are shown. Ratio paired t test was used to compare MFI of DSA before and after enzyme treatment at each serum dilution with *p<0.05, **p<0.01. (D) Schematic of the experiment shown in E-F. Naive NOD mice were immunized with B6.CD45.1 splenocytes four weeks prior to injection of T cell depleting mAbs. […] Splenocytes and bone marrow cells were analysed for the expression of MHC-I H-2K^b and CD45.2. […]
To determine the short-term survival of donor BMC in sensitized recipients, NOD mice that had been sensitized to B6.CD45.1 splenocytes were T cell-depleted (anti-CD4, 0.25 mg, anti-CD8, 0.25 mg, anti-CD90 0.3 mg, i.p.) two days prior to BMT and i.v. injected with EndoS and imlifidase 4 hours prior to BMT (80×10^6 B6.CD45.2 BMC via i.v. injection). Splenocytes and BMC were analyzed at 4 hours post BMC injection.

[5] = Imlifidase serum concentration in healthy subjects; type: in vivo, human; conditions: 0.25 mg/kg imlifidase, 96 hours
Description: (§2) FIG. 5. Mean imlifidase concentration vs. nominal time from dosing (N=15). Data BLQ are included in mean calculation as BLQ/2. SD indicated with bars. FIG. 6. In vitro cleavage of rATG by imlifidase over time. Columns indicate number of subjects with visible intact rATG on Western blot post-imlifidase (N=11).
(§3) The cleavage pattern of rATG was investigated with sera from healthy subjects (n=11) treated with 0.25 mg/kg imlifidase (EudraCT number: 2019-002770-31). Serum samples were incubated with a fixed, clinically relevant, concentration of 50 µg/mL rATG (commonly observed after a dose of 1.5 mg/kg), for 2 hours at 37° C. Serum samples were collected pre-imlifidase through 14 days post-imlifidase and were analyzed using SDS-PAGE and Western blot, developed with a goat anti-rabbit IgG, F(ab′)2 specific antibody to evaluate the cleavage of rATG. Imlifidase concentration was analyzed using a validated electroluminescence immunoassay based on MSD technology.

rATG = assay: In vitro cleavage of rATG by imlifidase in post-dose sera (SDS-PAGE and Western blot); type: biochemical, rabbit; conditions: sera 96 hours post-imlifidase, 50 µg/mL rATG, 2 hours at 37° C
Description: as §2, §3

plasma IgG-pool = conditions: humans, cited from earlier work

Molecule: Imlifidase (IdeS, Immunoglobulin G-degrading enzyme of S. pyogenes)
- cleavage of rATG in sera of imlifidase-treated subjects (SDS-PAGE and Western blot), 96 hours post-imlifidase [1]: 8

B1: EndoS: Endoglycosidase of S. pyogenes, IgG endoglycosidase; mature sequence SEQ ID NO: 90 (protein)
chain: EEKTVQVQKGLPSIDSLHYLSENSKKEFKEELSKAGQESQKVKEILAKAQQADKQAQELAKMKIPEKIPMKPLHGPLYGGYFRTWHDKTSDPTEKDKVNSMGELPKEVDLAFIFHDWTKDYSLFWKELATKHVPKLNKQGTRVIRTIPWRFLAGGDNSGIAEDTSKYPNTPEGNKALAKAIVDEYVYKYNLDGLDVDVEHDSIPKVDKKEDTAGVERSIQVFEEIGKLIGPKGVDKSRLFIMDSTYMADKNPLIERGAPYINLLLVQVYGSQGEKGGWEPVSNRPEKTMEERWQGYSKYIRPEQYMIGFSFYEENAQEGNLWYDINSRKDEDKANGINTDITGTRAERYARWQPKTGGVKGGIFSYAIDRDGVAHQPKKYAKQKEFKDATDNIFHSDYSVSKALKTVMLKDKSYDLIDEKDFPDKALREAVMAQVGTRKGDLERFNGTLRLDNPAIQSLEGLNKFKKLAQLDLIGLSRITKLDRSVLPANMKPGKDTLETVLETYKKDNKEEPATIPPVSLKVSGLTGLKELDLSGFDRETLAGLDAATLTSLEKVDISGNKLDLAPGTENRQIFDTMLSTISNHVGSNEQTVKFDKQKPTGHYPDTYGKTSLRLPVANEKVDLQSQLLFGTVTNQGTLINSEADYKAYQNHKIAGRSFVDSNYHYNNFKVSYENYTVKVTDSTLGTTTDKTLATDKEETYKVDFFSPADKTKAVHTAKVIVGDEKTMMVNLAEGATVIGGSADPVNARKVFDGQLGSETDNISLGWDSKQSIIFKLKEDGLIKHWRFFNDSARNPETTNKPIQEASLQIFNIKDYNLDNLLENPNKFDDEKYWITVDTYSAQGERATAFSNTLNNITSKYWRVVFDTKGDRYSSPVVPELQILGYPLPNADTIMKTVTTAKELSQQKDKFSQKMLDELKIKEMALETSLNSKIFDVTAINANAGVLKDCIEKRQLLKK
modifications: Streptococcus pyogenes
- ratio of B6 to NOD cells in blood ([2]; 30 µg EndoS i.v. with 10 µg anti-K^b mAb vs mAb alone, one hour post-BMT, stable at two and three hours): significantly increased
- ratio of B6 to NOD cells in BM and spleen ([2]; EndoS with 10 µg anti-K^b mAb vs mAb only, four hours post-BMT): significant increase
- ratio of B6 to NOD cells in blood ([2]; EndoS with 100 µg anti-K^b mAb vs mAb alone, one and two hours post-BMT): increased ratio
- ratio of B6 to NOD cells in blood ([2]; EndoS with 100 µg anti-K^b mAb, three hours post-BMT): did not last
- ratios of donor to recipient cells [3]: improved

B2: imlifidase: IdeS (Immunoglobulin G-degrading enzyme of S.pyogenes), IgG cysteine protease; mature sequence SEQ ID NO: 2 (protein)
chain: DSFSANQEIRYSEVTPYHVTSVWTKGVTPPANFTQGEDVFHAPYVANQGWYDITKTFNGKDDLLCGAATAGNMLHWWFDQNKDQIKRYLEEHPEKQKINFNGEQMFDVKEAIDTKNHQLDSKLFEYFKEKAFPYLSTKHLGVFPDHVIDMFINGYRLSLTNHGPTPVKEGSKDPRGGIFDAVFTRGDQSKLLTSRHDFKEKNLKEISDLIKKELTEGKALGLSHTYANVRINHVINLWGADFDSNGNLKAIYVTDSDSNASIGMKKYFVGVNSAGKVAISAKEIKEDNIGAQVLGLFTLSTGQDSWNQTN
modifications: Streptococcus pyogenes
- B6.CD45.2 donor cells in BM [4]: 0.15%
- B6.CD45.2 donor cells in spleen [4]: 0.46%
- imlifidase serum concentration, individual variation [5]: <0.1 to 1.8 µg/mL
- imlifidase serum concentration, mean [5]: 0.5 µg/mL
- subjects in which complete cleavage of rATG was avoided (rATG): 8 of 11
- cleavage of the entire plasma IgG-pool (plasma IgG-pool; after dosing with IdeS): within minutes
- time IgG levels in blood remain low (plasma IgG-pool; until newly synthesized IgG appeared): more than a week
